In data set [1] the target is T1, L-PGDS mutant Cys^89,186Ala (Mus musculus, UniProt O09114, C186A/C89A).
T1 construct: GST (N, cleaved yes); made in house; host or cells: Escherichia coli DH5α
T1 sequence (O09114 25-189 C89A/C186A): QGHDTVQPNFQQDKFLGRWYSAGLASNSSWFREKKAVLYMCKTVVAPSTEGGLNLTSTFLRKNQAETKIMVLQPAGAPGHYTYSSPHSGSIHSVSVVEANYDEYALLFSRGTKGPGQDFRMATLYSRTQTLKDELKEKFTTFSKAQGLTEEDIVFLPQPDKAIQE
Nature of the data set: Binding of prostaglandins to L-PGDS by surface plasmon resonance (BiaCore 2000). The conditions noted are these: for binding to L-PGDS (in words): 10 µM (Figure 7). How it is done: L-PGDS can act as a PGD2 transporter protein. […] That is, L-PGDS act as a PGD2 synthesis enzyme coupled with COX in cells and thereafter as an extracellular transporter of PGD2.
The binding of PGD2, PGE2 or PGF2α to L-PGDS was analyzed with BiaCore 2000 system (BiaCore, Uppsala, Sweden) using the surface plasmon resonance method. L-PGDS mutant Cys^89,186Ala was immobilized on CM5 sensor chip (BIAcore AB) coated with carboxymethyldextran. Binding assay was carried out at a constant flow rate of 30µ l/min. in the concentration range of 0.1 to 10 µ M in both the binding phase and the dissociation phase. After each assay, the sensor chip surface was regenerated with 15 µ l of 1.5 M urea. Rate constant values were calculated using analysis soft wear BIA Evaluation 3.0 soft wear after subtracting control surface (bovine serum albumin) using Langmuir 1: 1 binding model by four independent experiments.
Background: Surface plasmon resonance follows binding to a sensor surface in real time, without labels.

Another data set deals with H-PGDS (Homo sapiens, UniProt O60760). Nature of the data set: Affinity of H-PGDS to PGD2. The format is binding.
Sequence of H-PGDS (O60760 whole entry, species assumed): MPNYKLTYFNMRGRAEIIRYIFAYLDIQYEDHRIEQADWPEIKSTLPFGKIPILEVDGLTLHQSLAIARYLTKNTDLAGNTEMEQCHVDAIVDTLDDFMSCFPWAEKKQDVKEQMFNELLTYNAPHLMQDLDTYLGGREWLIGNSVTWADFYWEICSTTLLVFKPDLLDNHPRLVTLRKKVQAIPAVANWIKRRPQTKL
Data set [2] relates to human cerebellum medulloblast (TE671) expressing L-PGDS. The data set can be described thus: Inhibition of A23187-stimulated PGD2 production from cells expressing L-PGDS (EIA). The format is cell-based. The conditions noted are these: TE-671 cells, A23187 5 µM, compound added 15 minutes before stimulation, medium recovered 15 minutes after. How it is done: TE-671 is seeded on microplate at the density of 1×10^7. The cells were stimulated by A231875 (5 µ M) to cause PGD2 production. […] The culture medium was recovered 15 minutes after A23187 stimulation to quantify the PGD2 concentration in the culture medium by enzyme immunoassay (EIA).

Data set [3] concerns the target hematopoietic PGD Synthase (H-PGDS) (Homo sapiens, UniProt O60760). The data set can be described thus: Inhibition of hematopoietic PGD synthase enzyme activity ([1-14C]PGH2 to PGD2, thin layer chromatography). Format: biochemical. The conditions noted are these: 3 to 300 µM; PGH2 40 µM, 0.1 mM GSH, 25°C, 30 seconds. How it is done: In the measurement of hematopoietic PGD Synthase (H-PGDS), [1-^14C] PGH2 (40µM) as substrate is reacted in the presence of 0.1 M Tris-HCl (pH 8.0) and 0.1 mM GSH (reduced glutathione) at 25°C for 30 seconds.
After the completion of the reaction, the reaction liquid was subjected to thin layer chromatography to isolate and quantify PGD2 to calculate enzyme activity.

Another data set has as its target T2, L-PGDS (Mus musculus, UniProt O09114).
T2 sequence (O09114 25-189): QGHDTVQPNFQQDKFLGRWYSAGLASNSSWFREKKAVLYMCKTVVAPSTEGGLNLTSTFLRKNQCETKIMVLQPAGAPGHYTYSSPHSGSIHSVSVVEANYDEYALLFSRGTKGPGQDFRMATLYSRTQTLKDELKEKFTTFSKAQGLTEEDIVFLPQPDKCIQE
Nature of the data set: Binding of retinoids to L-PGDS.

Substrate in data set [4]: [H][C@]12C[C@]([H])(OO1)[C@H](C/C=C\CCCC(=O)O)[C@H]2/C=C/[C@@H](O)CCCCC
Nature of the data set: PGDS activity kinetics of L-PGDS mutants. Format: biochemical, mouse. Conditions: other: Km for PGH2, pH=8.0, 25.0 °C. From the text:
Since the preparation of recombinant protein having the same PGDS activity as purified wild-type enzyme is easy, Cys^89,186Ala construct was used for this purpose. Various mutants were expressed, purified to homogeneity and L-PGDS activities were compared at pH 8, 9 and 10 (Figure 8) .
After a candidate compound of L-PGDS inhibitor is selected, it is preferably contacted with the enzyme in the presence of the substrate (prostaglandin H2) to confirm an ability of the compound to inhibit the enzyme (see, for example, Shimizu, t., Yamamoto, S., and Hayaishi O. (1979), Purification and Properties of prostaglandin D synthase from rat brain, J. Biol. Chem., 254:5222-5228). The enzyme activity can be measured, for example, as follows:
The substrate [1-^14C]prostaglandin (PG)H2 is synthesized by reacting [1^-14C]arachidonic acid with cyclooxygenase. Since PGH2 is easily decomposed in an aqueous solution (half life: about 5 minutes), it is evaporated to dryness and stored at low temperature(-80°C). The enzyme reaction is performed by injecting 1 µL of PGH2 solution(acetone or non-volatile diethylenediglycohol solution) with a microsyringe to 49 µ L of 0.1 M phosphate buffer (pH8.0) containing 1 mM dithiothreitol (DTT) and the enzyme. After the reaction at 25 °C for 30 to 60 seconds, the reaction is quenched by the addition of 300 µL of ice-cold mixed solution of ether/methanol/0.1 M citric acid (30:4:1 v/v/v) followed by extraction the substrate and reaction product under acidic condition into ether layer. Subsequently, anhydrous sodium sulfate was added to dehydrate it. An aliquot of organic layer (about 50 µ L) is coated on silica gel thin layer in a low temperature room (4°C) and subjected to silica gel thin layer chromatography in a freezer (-20 °C) (developing solvent: ether/methanol/acetic acid (90:2:1 v/v/v) . After the development, radioactivity of PGD2 fraction and fraction other than it are measured to calculate an enzyme activity based on the conversion ratio to PGD2.
The site-specific mutagenesis was performed using a Quick change site-directed mutagenesis kit (Stratgene, Heiderberg, Germany). The DNA sequence was confirmed by the determination of cycle sequencing by a SequiTherm cycle sequencing kit (Epicentre Technologies, Madison, WI) followed by LI-COR model 4000L automatic DNA sequencer (LI-COR Inc., Lincoln, NE)

Sequence of hematopoietic PGD Synthase (H-PGDS) (O60760 whole entry, species assumed): as the sequence (O60760 whole entry, species assumed) above

Consider `CCCCC[C@H](O)/C=C/[C@H]1[C@H](O)CC(=O)[C@@H]1C/C=C\CCCC(=O)O` [PGE2], for which the “binding to L-PGDS (in words)” value in data set [1] is on record as “Neither PGE2 nor PGF2α is bound”.
Broadly, the Kd is the constant that tells how readily two partners part at equilibrium. On to `CCCCC[C@H](O)/C=C/[C@H]1C(=O)C[C@H](O)[C@@H]1C/C=C\CCCC(=O)O` [PGD2], for which, on H-PGDS, the “affinity of H-PGDS to PGD2 (in words)” value is “does not show high affinity”. Also, the kon in data set [1] (Langmuir 1:1 binding model) was 1.24x10^3 ± 37 M^-1sec^-1. Moreover, in data set [1] (Langmuir 1:1 binding model, four independent experiments), the Kd turned out to be 89.4 ± 3.4 nM.
Regarding `C1=Cc2ccccc2C(=C2CCN(CCCCc3nn[nH]n3)CC2)c2ccccc21` [AT-56, 4-dibenzo(a,d)cyclohepten-5-ylidene-1-(4-(2H-tetrazole-5-yl)butyl)piperidine], the “inhibition of PGD2 production by A23187 stimulation (in words)” value in data set [2] was “dose-dependently inhibited”. In addition, the “inhibition of H-PGDS (in words)” value in data set [3] is listed as “does not inhibit”.
Regarding `CCCCC[C@H](O)/C=C/[C@@H]1[C@@H](C/C=C\CCCC(=O)O)[C@@H](O)C[C@H]1O` [PGF2α], in data set [1], the “binding to L-PGDS (in words)” value was “Neither PGE2 nor PGF2α is bound”.
For `CC1=C(/C=C/C(C)=C/C=C/C(C)=C/C=O)C(C)(C)CCC1` [retinal], the “binding to L-PGDS (in words)” value at L-PGDS is “binds”.

B1: mouse L-PGDS, Wild Type(C65), Cys^89,186Ala construct, SEQ ID NO:1 (Mus musculus; C186A/C89A) (protein)
chain: QGHDTVQPNFQQDKFLGRWYSAGLASNSSWFREKKAVLYMCKTVVAPSTEGGLNLTSTFLRKNQAETKIMVLQPAGAPGHYTYSSPHSGSIHSVSVVEANYDEYALLFSRGTKGPGQDFRMATLYSRTQTLKDELKEKFTTFSKAQGLTEEDIVFLPQPDKAIQE
As a reminder, the Km is the substrate concentration at which the rate is half of its maximum. Consider B1, for which, in data set [4], the Km came out at 13 µM and the kcat/Km is reported as 2.38 µM^-1Min^-1.

B2: mouse L-PGDS mutant S45A (Ser^45Ala) in Cys^89,186Ala construct (Mus musculus; C186A/C89A/S45A) (protein)
chain: QGHDTVQPNFQQDKFLGRWYAAGLASNSSWFREKKAVLYMCKTVVAPSTEGGLNLTSTFLRKNQAETKIMVLQPAGAPGHYTYSSPHSGSIHSVSVVEANYDEYALLFSRGTKGPGQDFRMATLYSRTQTLKDELKEKFTTFSKAQGLTEEDIVFLPQPDKAIQE
Regarding B2, the Km in data set [4] turned out to be 11 µM.

B3: mouse L-PGDS mutant S81A (Ser^81Ala) in Cys^89,186Ala construct (Mus musculus; C186A/C89A/S81A) (protein)
chain: QGHDTVQPNFQQDKFLGRWYSAGLASNSSWFREKKAVLYMCKTVVAPSTEGGLNLTATFLRKNQAETKIMVLQPAGAPGHYTYSSPHSGSIHSVSVVEANYDEYALLFSRGTKGPGQDFRMATLYSRTQTLKDELKEKFTTFSKAQGLTEEDIVFLPQPDKAIQE
As to B3, in data set [4], the Michaelis constant (Km) is given as 12 µM and the kcat/Km is 0.50 µM^-1Min^-1.

B4: mouse L-PGDS mutant K92E (Lys^92Glu) in Cys^89,186Ala construct (Mus musculus; C186A/C89A/K92E) (protein)
chain: QGHDTVQPNFQQDKFLGRWYSAGLASNSSWFREKKAVLYMCKTVVAPSTEGGLNLTSTFLRKNQAETEIMVLQPAGAPGHYTYSSPHSGSIHSVSVVEANYDEYALLFSRGTKGPGQDFRMATLYSRTQTLKDELKEKFTTFSKAQGLTEEDIVFLPQPDKAIQE
As to B4, in data set [4], the Km turned out to be 14 µM and the kcat/Km is 5.71 µM^-1Min^-1.

B5: mouse L-PGDS mutant T147A (Thr^147Ala) in Cys^89,186Ala construct (Mus musculus; C186A/C89A/T147A) (protein)
chain: QGHDTVQPNFQQDKFLGRWYSAGLASNSSWFREKKAVLYMCKTVVAPSTEGGLNLTSTFLRKNQAETKIMVLQPAGAPGHYTYSSPHSGSIHSVSVVEANYDEYALLFSRGTKGPGQDFRMAALYSRTQTLKDELKEKFTTFSKAQGLTEEDIVFLPQPDKAIQE
As for B5, in data set [4], the Km is given as 19 µM and the kcat/Km was found to be 0.95 µM^-1Min^-1.

B6: mouse L-PGDS mutant R85E (Arg^85Glu) in Cys^89,186Ala construct (Mus musculus; C186A/C89A/R85E) (protein)
chain: QGHDTVQPNFQQDKFLGRWYSAGLASNSSWFREKKAVLYMCKTVVAPSTEGGLNLTSTFLEKNQAETKIMVLQPAGAPGHYTYSSPHSGSIHSVSVVEANYDEYALLFSRGTKGPGQDFRMATLYSRTQTLKDELKEKFTTFSKAQGLTEEDIVFLPQPDKAIQE
On to B6, for which, in data set [4], the Km is given as 7 µM and the kcat/Km is given as 4.86 µM^-1Min^-1.

B7: mouse L-PGDS mutant F83I (Phe^83Ile) in Cys^89,186Ala construct (Mus musculus; C186A/C89A/F83I) (protein)
chain: QGHDTVQPNFQQDKFLGRWYSAGLASNSSWFREKKAVLYMCKTVVAPSTEGGLNLTSTILRKNQAETKIMVLQPAGAPGHYTYSSPHSGSIHSVSVVEANYDEYALLFSRGTKGPGQDFRMATLYSRTQTLKDELKEKFTTFSKAQGLTEEDIVFLPQPDKAIQE
For the molecule B7, in data set [4], the Km was 15 µM and the kcat/Km is recorded as 4.47 µM^-1Min^-1.

These data come from EP1574569A1, “THREE-DIMENSIONAL STRUCTURE OF LIPOCALIN-TYPE PROSTAGLANDIN D SYNTHASE AND UTILIZATION OF THE SAME” (RIKEN, priority 2002, dated 2004).
